In PMC9370829 (Nature, 2022):

B1: UvrA, individually purified (natural protein, E. coli, UniProt P0A698 1-940, looked up)
chain: MDKIEVRGARTHNLKNINLVIPRDKLIVVTGLSGSGKSSLAFDTLYAEGQRRYVESLSAYARQFLSLMEKPDVDHIEGLSPAISIEQKSTSHNPRSTVGTITEIHDYLRLLFARVGEPRCPDHDVPLAAQTVSQMVDNVLSQPEGKRLMLLAPIIKERKGEHTKTLENLASQGYIRARIDGEVCDLSDPPKLELQKKHTIEVVVDRFKVRDDLTQRLAESFETALELSGGTAVVADMDDPKAEELLFSANFACPICGYSMRELEPRLFSFNNPAGACPTCDGLGVQQYFDPDRVIQNPELSLAGGAIRGWDRRNFYYFQMLKSLADHYKFDVEAPWGSLSANVHKVVLYGSGKENIEFKYMNDRGDTSIRRHPFEGVLHNMERRYKETESSAVREELAKFISNRPCASCEGTRLRREARHVYVENTPLPAISDMSIGHAMEFFNNLKLAGQRAKIAEKILKEIGDRLKFLVNVGLNYLTLSRSAETLSGGEAQRIRLASQIGAGLVGVMYVLDEPSIGLHQRDNERLLGTLIHLRDLGNTVIVVEHDEDAIRAADHVIDIGPGAGVHGGEVVAEGPLEAIMAVPESLTGQYMSGKRKIEVPKKRVPANPEKVLKLTGARGNNLKDVTLTLPVGLFTCITGVSGSGKSTLINDTLFPIAQRQLNGATIAEPAPYRDIQGLEHFDKVIDIDQSPIGRTPRSNPATYTGVFTPVRELFAGVPESRARGYTPGRFSFNVRGGRCEACQGDGVIKVEMHFLPDIYVPCDQCKGKRYNRETLEIKYKGKTIHEVLDMTIEEAREFFDAVPALARKLQTLMDVGLTYIRLGQSATTLSGGEAQRVKLARELSKRGTGQTLYILDEPTTGLHFADIQQLLDVLHKLRDQGNTIVVIEHNLDVIKTADWIVDLGPEGGSGGGEILVSGTPETVAECEASHTARFLKPML

Experiments:
[1] = target: the molecule itself; assay: cross-linking
[2] = target: B1; assay: cross-linking

B1: binds [1].

B2: UvrB, individually purified (natural protein, E. coli, UniProt P0A8F8 1-673, looked up)
chain: MSKPFKLNSAFKPSGDQPEAIRRLEEGLEDGLAHQTLLGVTGSGKTFTIANVIADLQRPTMVLAPNKTLAAQLYGEMKEFFPENAVEYFVSYYDYYQPEAYVPSSDTFIEKDASVNEHIEQMRLSATKAMLERRDVVVVASVSAIYGLGDPDLYLKMMLHLTVGMIIDQRAILRRLAELQYARNDQAFQRGTFRVRGEVIDIFPAESDDIALRVELFDEEVERLSLFDPLTGQIVSTIPRFTIYPKTHYVTPRERIVQAMEEIKEELAARRKVLLENNKLLEEQRLTQRTQFDLEMMNELGYCSGIENYSRFLSGRGPGEPPPTLFDYLPADGLLVVDESHVTIPQIGGMYRGDRARKETLVEYGFRLPSALDNRPLKFEEFEALAPQTIYVSATPGNYELEKSGGDVVDQVVRPTGLLDPIIEVRPVATQVDDLLSEIRQRAAINERVLVTTLTKRMAEDLTEYLEEHGERVRYLHSDIDTVERMEIIRDLRLGEFDVLVGINLLREGLDMPEVSLVAILDADKEGFLRSERSLIQTIGRAARNVNGKAILYGDKITPSMAKAIGETERRREKQQKYNEEHGITPQGLNKKVVDILALGQNIAKTKAKGRGKSRPIVEPDNVPMDMSPKALQQKIHELEGLMMQHAQNLEFEEAAQIRDQLHQLRELFIAAS
B2: binds [2].
